The target of this experiment is T1, B-Myb negative regulatory domain NRD^440–600 (human, UniProt P10244-1 440-600).
T1 construct: human B-Myb (MYBL2), negative regulatory domain, amino acids 440 to 600; source: E. coli, purified (Glutathione Sepharose, Q-sepharose, TEV cleavage, Superdex-75); not shown: GST, N-terminal, cleaved
In words: ITC; DBD (500 μM) titrated into NRD (50 μM) at 19 °C; 150 mM NaCl, 20 mM Tris, 1 mM BME (pH 8); MicroCal VP-ITC; mean of three technical replicates. The following applies: both partners purified. (In general: ITC needs no label: the signal is the heat of the interaction.)

One may read the Kd as the concentration at which binding is half-saturated. Low values mean a tighter complex, high ones a looser complex.

T1 sequence (P10244 440-600): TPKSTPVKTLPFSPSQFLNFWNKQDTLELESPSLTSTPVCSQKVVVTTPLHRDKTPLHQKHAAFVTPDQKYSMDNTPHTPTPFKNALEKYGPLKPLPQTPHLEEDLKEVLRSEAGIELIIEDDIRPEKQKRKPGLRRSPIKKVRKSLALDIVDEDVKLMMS

B1: B-Myb DNA-binding domain (B-Myb^34–183) (domain or fragment)
chain: not shown
notes: Limits 34-183 are printed for 'the DBD alone' in the FP experiment; also called DBD; B-Myb DBD; source: E. coli, purified (Glutathione Sepharose, Q-sepharose, TEV cleavage, Superdex-75); not shown: GST, N-terminal, cleaved
As to B1, the Kd was 4.5 µM.

(Values after paper PMC9478404, “Cyclin-dependent kinase-mediated phosphorylation and the negative regulatory domain of transcription factor B-Myb modulate its DNA binding” (The Journal of Biological Chemistry, 2022).)
